Our source for the Kd and maximum reduction of fluorescence emission values is patent US20230053129A1.

In the experiment the target is Shiga toxin 2 (UniProt P09385).

pKd: −log10 of the molar value.

Chain of Shiga toxin 2 (P09385 23-319, chain 1 of 2): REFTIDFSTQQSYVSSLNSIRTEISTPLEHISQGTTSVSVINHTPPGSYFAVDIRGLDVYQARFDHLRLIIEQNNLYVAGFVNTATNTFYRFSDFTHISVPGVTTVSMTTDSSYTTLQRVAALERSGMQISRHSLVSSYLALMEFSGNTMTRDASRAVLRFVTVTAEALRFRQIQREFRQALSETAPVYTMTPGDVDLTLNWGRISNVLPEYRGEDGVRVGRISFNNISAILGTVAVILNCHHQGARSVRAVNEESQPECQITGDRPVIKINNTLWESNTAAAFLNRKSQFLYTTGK
Chain of Shiga toxin 2 (P09386 20-89, chain 2 of 2, further chain): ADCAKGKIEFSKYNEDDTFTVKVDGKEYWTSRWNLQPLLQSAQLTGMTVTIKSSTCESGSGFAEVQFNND

For “NAB815 (OA-Dab-Thr-DThr-cy[Dab-Dab-DPhe-Leu-Abu-Dab-Thr-]) (peptide)”, the pKd – broadly, the Kd on a negative log10 scale, so that one unit is a factor of ten – was 8.30 and the maximum reduction of fluorescence emission came out at 10%.
